Measurements taken from publication doi:10.1101/2023.03.06.531322.

Target: TafA (HAH_0240), mature major subunit of tat-fimbriae (tafi) of Haloarcula hispanica (Haloarcula hispanica)
Experiment: co-sedimentation

Substance	molar ratio in filament preparations (molecules per 100 molecules of TafA)
TafC (HAH_0242), minor component of tafi of Haloarcula hispanica (natural protein)	1
TafE (HAH_0239), minor component of tafi of Haloarcula hispanica (natural protein)	5
